Test results published in patent US10688197B2, “Non-alcoholic fatty liver regulator 14-3-3 protein” (Korea University Research and Business Foundation, priority 2015, dated 2020).

Legend:
[1] = target: T1, PPARγ2 (Homo sapiens, UniProt P37231); experiment: aP2 promoter luciferase reporter, transcriptional activity of PPARγ2 in HEK-293T cells; assay type: cell-based; conditions: for transcriptional activity of PPARγ2: overexpressed according to concentration, concentration-dependent manner, FIG. 1B/1C; for transcriptional activity of PPARγ2 (activity of the aP2 promoter): overexpression of 14-3-3 isoform proteins (0.5 μg), HEK-293T, 10 μM pioglitazone 24 hours, FIG. 1A
T1 construct: endogenous in cells; host or cells: HEK-293T
T1 sequence (P37231 1-505): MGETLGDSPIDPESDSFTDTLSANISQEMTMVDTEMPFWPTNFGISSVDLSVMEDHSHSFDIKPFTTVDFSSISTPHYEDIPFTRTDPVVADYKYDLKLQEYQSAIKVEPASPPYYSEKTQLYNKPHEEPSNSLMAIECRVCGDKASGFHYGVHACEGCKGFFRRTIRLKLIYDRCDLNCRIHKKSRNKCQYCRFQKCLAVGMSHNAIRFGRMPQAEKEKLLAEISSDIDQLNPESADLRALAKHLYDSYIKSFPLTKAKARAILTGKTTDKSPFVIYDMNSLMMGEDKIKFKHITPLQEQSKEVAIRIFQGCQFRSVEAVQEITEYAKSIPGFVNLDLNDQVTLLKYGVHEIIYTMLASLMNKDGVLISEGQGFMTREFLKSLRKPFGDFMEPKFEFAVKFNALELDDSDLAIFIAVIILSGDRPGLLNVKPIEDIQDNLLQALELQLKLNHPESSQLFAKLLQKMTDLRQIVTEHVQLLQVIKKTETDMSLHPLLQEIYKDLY
Procedure: The transcriptional activity of PPARγ2 plays a vital role in expression of liver diseases-associated proteins. Thus, the transcriptional activity of PPARγ2 was measured using an aP2 promoter regulated by PPARγ2, and the role of 7 types of 14-3-3 proteins was investigated.
For this, HEK-293T cells were seeded in a 12-well plate at a density of 1×10^5 cells per each well, and then transfected with an aP2 promoter construct (0.5 μg) and 14-3-3 isoform proteins (α, β, γ, δ, ε, ζ, η, θ) (0.5 μg) or si-14-3-3β and si-14-3-3γ siRNA (5 nM and 10 nM, Santa Cruz) using an E-fection plus reagent (Lugen). A ratio of DNA to the E-fection plus reagent was 1:2, and this method was performed according to a manufacturer's manual. After transfection, the corresponding cells were treated with 10 μM of pioglitazone (Pio, Santa Cruz) for 24 hours, washed with ice-cold PBS, and lysed using 80 μl/well of a reporter lysis buffer (Promega, Madison, Wis.), and the lysed cells were centrifuged at 10,000×g and 4° C. for 10 minutes to collect a supernatant, and luciferase activity was measured. As an instrument, Luminometer 20/20n (Turner Biosystems, Sunnyvale, Calif.) was used. For normalization, the cells were cotransfected with pSV40-β-galactosidase. For the collected supernatant, β-galactosidase activity was measured and the luciferase activity was revised, and the obtained values were plotted. At this time, a β-galactosidase enzyme analysis system (Promega, Madison, Wis.) was used, and analysis was performed using a DU530 spectrophotometer (Beckman Instruments, Palo Alto, Calif.).

[2] = target: T2, binding between PPARγ2 and 14-3-3γ (Homo sapiens, UniProt P37231); experiment: GST-pull down assay, binding between PPARγ2 and 14-3-3γ (HEK-293T)
T2 construct: expressed in transfected cells; host or cells: HEK-293T
T2 sequence (P37231 1-505): T1 sequence (P37231 1-505)
Procedure: (§1) After transfection, […], washed with ice-cold PBS, and lysed using 500 μl/well of a lysis buffer (150 mM NaCl, 1 mM EDTA, 1% Nonidet P-40, 5% glycerol, 25 mM tris-HCl, pH 7.5, protease inhibitor added), and the lysed cells were centrifuged at 10,000×g and 4° C. for 10 minutes to extract proteins. Thereafter, 1,000 μg of the proteins was reacted with 20 μl of glutathione Sepharose 4B beads (GE Healthcare, Buckinghamshire, UK) for 6 hours, and then washing of the beads with 1 ml of ice-cold PBS was repeated 5 times, and the beads were boiled at 100° C. for 10 minutes, followed by 10% SDS-PAGE gel separation and western blotting. A ratio of GST antibodies (Santa Cruz) to Myc antibodies (self-production) was 1:3000. The detection of each protein was performed using West Pico ECL (Thermo scientific, Rockford, Ill.) and identified in a darkroom.
(§2) After transfection, […], washed with ice-cold PBS, and lysed using 500 μl/well of a lysis buffer (150 mM NaCl, 1 mM EDTA, 1% Nonidet P-40, 5% glycerol, 25 mM tris-HCl, pH 7.5, protease inhibitor added), and the lysed cells were centrifuged at 10,000×g and 4° C. for 10 minutes to extract proteins. […]

[3] = target: T3, binding between PPARγ2 and 14-3-3β (Homo sapiens, UniProt P37231); experiment: GST-pull down assay, binding between PPARγ2 and 14-3-3β (HEK-293T)
T3 construct: expressed in transfected cells; host or cells: HEK-293T
T3 sequence (P37231 1-505): T1 sequence (P37231 1-505)
T3 sequence (P31946 1-246 partner): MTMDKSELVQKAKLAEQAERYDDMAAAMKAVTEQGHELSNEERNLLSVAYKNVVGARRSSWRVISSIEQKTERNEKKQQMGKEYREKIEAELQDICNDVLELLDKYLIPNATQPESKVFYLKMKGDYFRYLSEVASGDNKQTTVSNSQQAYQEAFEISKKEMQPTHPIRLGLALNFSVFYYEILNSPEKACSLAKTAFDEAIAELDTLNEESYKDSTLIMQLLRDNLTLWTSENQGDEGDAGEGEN
Procedure: as §1, §2

| transcriptional activity of PPARγ2 [1] | transcriptional activity of PPARγ2 (activity of the aP2 promoter) [1] | binding between 14-3-3γ and PPARγ2 ([2]; expression amount of 14-3-3β increased (HA-14-3-3β DNA 2 and 4 μg), FIG. 5B) | binding between 14-3-3β and PPARγ2 ([3]; expression amount of 14-3-3γ increased (HA-14-3-3γ DNA 2 and 4 μg), FIG. 5A) | binding between PPARγ2 and 14-3-3β ([3]; 200 μM oleic acid 72 hours, FIG. 8A) | binding between PPARγ2 and 14-3-3γ ([2]; 200 μM oleic acid 72 hours, FIG. 8B) | Molecule |
| --- | --- | --- | --- | --- | --- | --- |
| increased | increased | reduced | – | – | – | 14-3-3β: 14-3-3 isoform protein overexpressed by DNA transfection; increases the transcriptional activity of PPARγ2 by binding to PPARγ2 |
| reduced | decreased | – | reduced | – | – | 14-3-3γ: 14-3-3 isoform protein overexpressed by DNA transfection; decreases the transcriptional activity of PPARγ2; proposed active ingredient |
| – | – | – | – | increased | reduced | CCCCCCCC/C=C\CCCCCCCC(=O)O [oleic acid] |
